{
  "source": "paper PMC7367873",
  "about": "“Dissecting the sequence determinants for dephosphorylation by the catalytic subunits of phosphatases PP1 and PP2A” (Nature Communications, 2020)",
  "molecules": {"B1": {"name": "SAMD4B (protein, UniProt Q5PRF9 1-694, looked up)", "Protein Smaug homolog 2": "MMFRDQVGILAGWFKGWNECEQTVALLSLLKRVTRTQARFLQLCLEHSLADCNDIHLLESEANSAAIVSQWQQESKEKVVSLLLSHLPLLQPGNTEAKSEYMRLLQKVLAYSIESNAFIEESRQLLSYALIHPATTLEDRNALALWLSHLEERLASGFRSRPEPSYHSRQGSDEWGGPAELGPGEAGPGWQDKPPRENGHVPFHPSSSVPPAINSIGSNANTGLPCQIHPSPLKRSMSLIPTSPQVPGEWPSPEELGARAAFTTPDHAPLSPQSSVASSGSEQTEEQGSSRNTFQEDGSGMKDVPSWLKSLRLHKYAALFSQMSYEEMMTLTEQHLESQNVTKGARHKIALSIQKLRERQSVLKSLEKDVLEGGNLRNALQELQQIIITPIKAYSVLQATVAAATTTPTAKDGAPGEPPLPGAEPPLAHPGTDKGTEAKDPPAVENYPPPPAPAPTDGSEPAPAPVADGDIPSQFTRVMGKVCTQLLVSRPDEENITSYLQLIEKCLTHEAFTETQKKRLLSWKQQVLKLLRTFPRKAALEMQNYRQQKGWAFGSNSLPIAGSVGMGVARRTQRQFPMPPRALPPGRMGLLSPSGIGGVSPRHALTSPSLGGQGRQNLWFANPGGSNSMPSQSRSSVQRTHSLPVHSSPQAILMFPPDCPVPGPDLEINPTLESLCLSMTEHALGDGTDKTSTI"}, "B2": {"name": "ACIN1 (protein, UniProt Q9UKV3 1-1341, looked up)", "Apoptotic chromatin …": "MWRRKHPRTSGGTRGVLSGNRGVEYGSGRGHLGTFEGRWRKLPKMPEAVGTDPSTSRKMAELEEVTLDGKPLQALRVTDLKAALEQRGLAKSGQKSALVKRLKGALMLENLQKHSTPHAAFQPNSQIGEEMSQNSFIKQYLEKQQELLRQRLEREAREAAELEEASAESEDEMIHPEGVASLLPPDFQSSLERPELELSRHSPRKSSSISEEKGDSDDEKPRKGERRSSRVRQARAAKLSEGSQPAEEEEDQETPSRNLRVRADRNLKTEEEEEEEEEEEEDDEEEEGDDEGQKSREAPILKEFKEEGEEIPRVKPEEMMDERPKTRSQEQEVLERGGRFTRSQEEARKSHLARQQQEKEMKTTSPLEEEEREIKSSQGLKEKSKSPSPPRLTEDRKKASLVALPEQTASEEETPPPLLTKEASSPPPHPQLHSEEEIEPMEGPAPAVLIQLSPPNTDADTRELLVSQHTVQLVGGLSPLSSPSDTKAESPAEKVPEESVLPLVQKSTLADYSAQKDLEPESDRSAQPLPLKIEELALAKGITEECLKQPSLEQKEGRRASHTLLPSHRLKQSADSSSSRSSSSSSSSSRSRSRSPDSSGSRSHSPLRSKQRDVAQARTHANPRGRPKMGSRSTSESRSRSRSRSRSASSNSRKSLSPGVSRDSSTSYTETKDPSSGQEVATPPVPQLQVCEPKERTSTSSSSVQARRLSQPESAEKHVTQRLQPERGSPKKCEAEEAEPPAATQPQTSETQTSHLPESERIHHTVEEKEEVTMDTSENRPENDVPEPPMPIADQVSNDDRPEGSVEDEEKKESSLPKSFKRKISVVSATKGVPAGNSDTEGGQPGRKRRWGASTATTQKKPSISITTESLKSLIPDIKPLAGQEAVVDLHADDSRISEDETERNGDDGTHDKGLKICRTVTQVVPAEGQENGQREEEEEEKEPEAEPPVPPQVSVEVALPPPAEHEVKKVTLGDTLTRRSISQQKSGVSITIDDPVRTAQVPSPPRGKISNIVHISNLVRPFTLGQLKELLGRTGTLVEEAFWIDKIKSHCFVTYSTVEEAVATRTALHGVKWPQSNPKFLCADYAEQDELDYHRGLLVDRPSETKTEEQGIPRPLHPPPPPPVQPPQHPRAEQREQERAVREQWAEREREMERRERTRSEREWDRDKVREGPRSRSRSRDRRRKERAKSKEKKSEKKEKAQEEPPAKLLDDLFRKTKAAPCIYWLPLTDSQIVQKEAERAERAKEREKRRKEQEEEEQKEREKEAERERNRQLEREKRREHSRERDRERERERERDRGDRDRDRERDRERGRERDRRDTKRHSRSRSRSTPVRDRGGRR"}, "B3": {"name": "CORO1B (protein, UniProt Q9BR76 1-489, looked up)", "Coronin-1B": "MSFRKVVRQSKFRHVFGQPVKNDQCYEDIRVSRVTWDSTFCAVNPKFLAVIVEASGGGAFLVLPLSKTGRIDKAYPTVCGHTGPVLDIDWCPHNDEVIASGSEDCTVMVWQIPENGLTSPLTEPVVVLEGHTKRVGIIAWHPTARNVLLSAGCDNVVLIWNVGTAEELYRLDSLHPDLIYNVSWNHNGSLFCSACKDKSVRIIDPRRGTLVAEREKAHEGARPMRAIFLADGKVFTTGFSRMSERQLALWDPENLEEPMALQELDSSNGALLPFYDPDTSVVYVCGKGDSSIRYFEITEEPPYIHFLNTFTSKEPQRGMGSMPKRGLEVSKCEIARFYKLHERKCEPIVMTVPRKSDLFQDDLYPDTAGPEAALEAEEWVSGRDADPILISLREAYVPSKQRDLKISRRNVLSDSRPAMAPGSSHLGAPASTTTAADATPSGSLARAGEAGKLEEVMQELRALRALVKEQGDRICRLEEQLGRMENGDA"}, "B4": {"name": "ZC3H18 (protein, UniProt Q86VM9 1-953, looked up)", "Zinc finger CCCH …": "MDVAESPERDPHSPEDEEQPQGLSDDDILRDSGSDQDLDGAGVRASDLEDEESAARGPSQEEEDNHSDEEDRASEPKSQDQDSEVNELSRGPTSSPCEEEGDEGEEDRTSDLRDEASSVTRELDEHELDYDEEVPEEPAPAVQEDEAEKAGAEDDEEKGEGTPREEGKAGVQSVGEKESLEAAKEKKKEDDDGEIDDGEIDDDDLEEGEVKDPSDRKVRPRPTCRFFMKGNCTWGMNCRFIHPGVNDKGNYSLITKADPFPPNGAPPLGPHPLMPANPWGGPVVDEILPPPPPEPPTESAWERGLRHAKEVLKKATIRKEQEPDFEEKRFTVTIGEDEREFDKENEVFRDWNSRIPRDVRDTVLEPYADPYYDYEIERFWRGGQYENFRVQYTETEPYHNYRERERERERENRQRERERERERDRERERRQRERERERERERDKERQRRKEEWERERAKRDEKDRQHRDRDREKEREKEKGKPKPRSPQPPSRQAEPPKKEAATTGPQVKRADEWKDPWRRSKSPKKKLGVSVSPSRARRRRKTSASSASASNSSRSSSRSSSYSGSGSSRSRSRSSSYSSYSSRSSRHSSFSGSRSRSRSFSSSPSPSPTPSPHRPSIRTKGEPAPPPGKAGEKSVKKPAPPPAPPQATKTTAPVPEPTKPGDPREARRKERPARTPPRRRTLSGSGSGSGSSYSGSSSRSRSLSVSSVSSVSSATSSSSSAHSVDSEDMYADLASPVSSASSRSPAPAQTRKEKGKSKKEDGVKEEKRKRDSSTQPPKSAKPPAGGKSSQQPSTPQQAPPGQPQQGTFVAHKEIKLTLLNKAADKGSRKRYEPSDKDRQSPPPAKRPNTSPDRGSRDRKSGGRLGSPKPERQRGQNSKAPAAPADRKRQLSPQSKSSSKVTSVPGKASDPGAASTKSGKASTLSRREELLKQLKAVEDAIARKRAKIPGKA"}, "B5": {"name": "CENPV (protein, UniProt Q7Z7K6 1-275, looked up)", "Centromere protein V": "MRRSRSSAAAKLRGQKRSGASGASAAPAASAAAALAPSATRTRRSASQAGSKSQAVEKPPSEKPRLRRSSPRAQEEGPGEPPPPELALLPPPPPPPPTPATPTSSASNLDLGEQRERWETFQKRQKLTSEGAAKLLLDTFEYQGLVKHTGGCHCGAVRFEVWASADLHIFDCNCSICKKKQNRHFIVPASRFKLLKGAEHITTYTFNTHKAQHTFCKRCGVQSFYTPRSNPGGFGIAPHCLDEGTVRSMVTEEFNGSDWEKAMKEHKTIKNMSKE"}, "B6": {"name": "TJP2 (protein, UniProt Q9UDY2 1-1190, looked up)", "Tight junction protein 2": "MPVRGDRGFPPRRELSGWLRAPGMEELIWEQYTVTLQKDSKRGFGIAVSGGRDNPHFENGETSIVISDVLPGGPADGLLQENDRVVMVNGTPMEDVLHSFAVQQLRKSGKVAAIVVKRPRKVQVAALQASPPLDQDDRAFEVMDEFDGRSFRSGYSERSRLNSHGGRSRSWEDSPERGRPHERARSRERDLSRDRSRGRSLERGLDQDHARTRDRSRGRSLERGLDHDFGPSRDRDRDRSRGRSIDQDYERAYHRAYDPDYERAYSPEYRRGARHDARSRGPRSRSREHPHSRSPSPEPRGRPGPIGVLLMKSRANEEYGLRLGSQIFVKEMTRTGLATKDGNLHEGDIILKINGTVTENMSLTDARKLIEKSRGKLQLVVLRDSQQTLINIPSLNDSDSEIEDISEIESNRSFSPEERRHQYSDYDYHSSSEKLKERPSSREDTPSRLSRMGATPTPFKSTGDIAGTVVPETNKEPRYQEDPPAPQPKAAPRTFLRPSPEDEAIYGPNTKMVRFKKGDSVGLRLAGGNDVGIFVAGIQEGTSAEQEGLQEGDQILKVNTQDFRGLVREDAVLYLLEIPKGEMVTILAQSRADVYRDILACGRGDSFFIRSHFECEKETPQSLAFTRGEVFRVVDTLYDGKLGNWLAVRIGNELEKGLIPNKSRAEQMASVQNAQRDNAGDRADFWRMRGQRSGVKKNLRKSREDLTAVVSVSTKFPAYERVLLREAGFKRPVVLFGPIADIAMEKLANELPDWFQTAKTEPKDAGSEKSTGVVRLNTVRQIIEQDKHALLDVTPKAVDLLNYTQWFPIVIFFNPDSRQGVKTMRQRLNPTSNKSSRKLFDQANKLKKTCAHLFTATINLNSANDSWFGSLKDTIQHQQGEAVWVSEGKMEGMDDDPEDRMSYLTAMGADYLSCDSRLISDFEDTDGEGGAYTDNELDEPAEEPLVSSITRSSEPVQHEESIRKPSPEPRAQMRRAASSDQLRDNSPPPAFKPEPPKAKTQNKEESYDFSKSYEYKSNPSAVAGNETPGASTKGYPPPVAAKPTFGRSILKPSTPIPPQEGEEVGESSEEQDNAPKSVLGKVKIFEKMDHKARLQRMQELQEAQNARIEIAQKHPDIYAVPIKTHKPDPGTPQHTSSRPPEPQKAPSRPYQDTRGSYGSDAEEEEYRQQLSEHSKRGYYGQSARYRDTEL"}, "B7": {"name": "EIF2A (protein, UniProt Q9BY44 1-585, looked up)", "Eukaryotic translation …": "MAPSTPLLTVRGSEGLYMVNGPPHFTESTVFPRESGKNCKVCIFSKDGTLFAWGNGEKVNIISVTNKGLLHSFDLLKAVCLEFSPKNTVLATWQPYTTSKDGTAGIPNLQLYDVKTGTCLKSFIQKKMQNWCPSWSEDETLCARNVNNEVHFFENNNFNTIANKLHLQKINDFVLSPGPQPYKVAVYVPGSKGAPSFVRLYQYPNFAGPHAALANKSFFKADKVTMLWNKKATAVLVIASTDVDKTGASYYGEQTLHYIATNGESAVVQLPKNGPIYDVVWNSSSTEFCAVYGFMPAKATIFNLKCDPVFDFGTGPRNAAYYSPHGHILVLAGFGNLRGQMEVWDVKNYKLISKPVASDSTYFAWCPDGEHILTATCAPRLRVNNGYKIWHYTGSILHKYDVPSNAELWQVSWQPFLDGIFPAKTITYQAVPSEVPNEEPKVATAYRPPALRNKPITNSKLHEEEPPQNMKPQSGNDKPLSKTALKNQRKHEAKKAAKQEARSDKSPDLAPTPAPQSTPRNTVSQSISGDPEIDKKIKNLKKKLKAIEQLKEQAATGKQLEKNQLEKIQKETALLQELEDLELGI"}},
  "data": [
    {"test_system": "GFP-14-3-3β and its binding proteins", "assay": "GFP-14-3-3β co-IP with LC-MS/MS label-free quantification, untreated versus PP1c-treated", "design": "species or system human", "settings": "PP1 vs untreated; LFQ intensities, replicates 1-3", "units": {"Difference (log2), PP1 vs untreated": "log2"}, "values": [
      {"molecule": "B1", "Difference (log2), PP1 vs untreated": -1.071},
      {"molecule": "B2", "Difference (log2), PP1 vs untreated": -1.001},
      {"molecule": "B3", "Difference (log2), PP1 vs untreated": -1.031},
      {"molecule": "B4", "Difference (log2), PP1 vs untreated": -1.028},
      {"molecule": "B5", "Difference (log2), PP1 vs untreated": -0.9888},
      {"molecule": "B6", "Difference (log2), PP1 vs untreated": -0.9629}
    ]},
    {"test_system": "GFP-14-3-3β and its binding proteins", "assay": "GFP-14-3-3β co-IP with LC-MS/MS label-free quantification, untreated versus PP1c-treated", "design": "species or system human", "settings": "log2 difference; pairwise comparison PP1 vs untreated, label-free quantification, 3 replicates each", "values": [
      {"molecule": "B7", "Difference (log2), PP1 vs untreated": 1.627}
    ]},
    {"test_system": "GFP-14-3-3β", "assay": "GFP-14-3-3β co-IP with LC-MS/MS, untreated GFP-14-3-3β versus GFP control (14-3-3 interactome)", "assay_type": "binding, human", "settings": "log2 difference; pairwise comparison untreated vs GFP, label-free quantification, 3 replicates each", "values": [
      {"molecule": "B7", "Difference (log2), untreated vs GFP": -1.244}
    ]},
    {"test_system": "GFP-14-3-3β", "assay": "GFP-14-3-3β co-IP with LC-MS/MS, untreated GFP-14-3-3β versus GFP control (14-3-3 interactome)", "assay_type": "binding, human", "settings": "untreated vs GFP; LFQ intensities, replicates 1-3", "units": {"Difference (log2), untreated vs GFP": "log2"}, "values": [
      {"molecule": "B1", "Difference (log2), untreated vs GFP": 4.238},
      {"molecule": "B2", "Difference (log2), untreated vs GFP": 1.747},
      {"molecule": "B3", "Difference (log2), untreated vs GFP": 0.1576},
      {"molecule": "B4", "Difference (log2), untreated vs GFP": 1.571},
      {"molecule": "B5", "Difference (log2), untreated vs GFP": 2.895},
      {"molecule": "B6", "Difference (log2), untreated vs GFP": 5.699}
    ]}
  ]
}
